From publication PMC3290569, “Macro-to-Micro Structural Proteomics: Native Source Proteins for High-Throughput Crystallization” (PLoS ONE, 2012)

Molecular target: the molecule itself
Experiment: crystal structure; novel structures of native source E. coli proteins, solved by molecular replacement and refined; oligomer seen in the crystal

Row | Protein | stoichiometry N
1 | 6-phospho-beta-glucosidase (BglA) (enzyme, Escherichia coli, UniProt Q46829 1-479, looked up, 6-phospho-beta-glucosidase BglA, Escherichia coli, native source protein; source: purified from E. coli DH5α cells (CaptoQ, phenyl sepharose, MonoQ)) MIVKKLTLPKDFLWGGAVAAHQVEGGWNKGGKGPSICDVLTGGAHGVPREITKEVLPGKYYPNHEAVDFYGHYKEDIKLFAEMGFKCFRTSIAWTRIFPKGDEAQPNEEGLKFYDDMFDELLKYNIEPVITLSHFEMPLHLVQQYGSWTNRKVVDFFVRFAEVVFERYKHKVKYWMTFNEINNQRNWRAPLFGYCCSGVVYTEHENPEETMYQVLHHQFVASALAVKAARRINPEMKVGCMLAMVPLYPYSCNPDDVMFAQESMRERYVFTDVQLRGYYPSYVLNEWERRGFNIKMEDGDLDVLREGTCDYLGFSYYMTNAVKAEGGTGDAISGFEGSVPNPYVKASDWGWQIDPVGLRYALCELYERYQRPLFIVENGFGAYDKVEEDGSINDDYRIDYLRAHIEEMKKAVTYDGVDLMGYTPWGCIDCVSFTTGQYSKRYGFIYVNKHDDGTGDMSRSRKKSFNWYKEVIASNGEKL | 2
2 | Glutamate dehydrogenase (GDH) (enzyme, Escherichia coli, UniProt P00370 1-447, looked up, glutamate dehydrogenase, Escherichia coli, native source protein; hexamer (dimer of trimers); source: purified from E. coli DH5α cells (CaptoQ, phenyl sepharose, MonoQ)) MDQTYSLESFLNHVQKRDPNQTEFAQAVREVMTTLWPFLEQNPKYRQMSLLERLVEPERVIQFRVVWVDDRNQIQVNRAWRVQFSSAIGPYKGGMRFHPSVNLSILKFLGFEQTFKNALTTLPMGGGKGGSDFDPKGKSEGEVMRFCQALMTELYRHLGADTDVPAGDIGVGGREVGFMAGMMKKLSNNTACVFTGKGLSFGGSLIRPEATGYGLVYFTEAMLKRHGMGFEGMRVSVSGSGNVAQYAIEKAMEFGARVITASDSSGTVVDESGFTKEKLARLIEIKASRDGRVADYAKEFGLVYLEGQQPWSLPVDIALPCATQNELDVDAAHQLIANGVKAVAEGANMPTTIEATELFQQAGVLFAPGKAANAGGVATSGLEMAQNAARLGWKAEKVDARLHHIMLDIHHACVEHGGEGEQTNYVQGANIAGFVKVADAMLAQGVI | 6
